In article PMC6858450:
Primed or numbered codes have the meaning given here. No end group written: not given here. *: point of attachment. Mca = COc1ccc2c(CC(=O)*)cc(=O)oc2c1; Dnp′ = not defined here

What was measured:
[1] = test system: securin-separase fusion C2029S (catalytically dead) (Homo sapiens); test: fluorescence polarization; conditions: 25 mM HEPES pH 7.8, 50 mM KCl, 5 mM MgCl2, 0.5 mM TCEP; 1 nM DNA; 30 min at 25 °C
[2] = biological target: active (apo, securin-free) human separase (human) (UniProt Q14674)
Chain of UniProt Q14674 (Q14674 whole entry S1126A): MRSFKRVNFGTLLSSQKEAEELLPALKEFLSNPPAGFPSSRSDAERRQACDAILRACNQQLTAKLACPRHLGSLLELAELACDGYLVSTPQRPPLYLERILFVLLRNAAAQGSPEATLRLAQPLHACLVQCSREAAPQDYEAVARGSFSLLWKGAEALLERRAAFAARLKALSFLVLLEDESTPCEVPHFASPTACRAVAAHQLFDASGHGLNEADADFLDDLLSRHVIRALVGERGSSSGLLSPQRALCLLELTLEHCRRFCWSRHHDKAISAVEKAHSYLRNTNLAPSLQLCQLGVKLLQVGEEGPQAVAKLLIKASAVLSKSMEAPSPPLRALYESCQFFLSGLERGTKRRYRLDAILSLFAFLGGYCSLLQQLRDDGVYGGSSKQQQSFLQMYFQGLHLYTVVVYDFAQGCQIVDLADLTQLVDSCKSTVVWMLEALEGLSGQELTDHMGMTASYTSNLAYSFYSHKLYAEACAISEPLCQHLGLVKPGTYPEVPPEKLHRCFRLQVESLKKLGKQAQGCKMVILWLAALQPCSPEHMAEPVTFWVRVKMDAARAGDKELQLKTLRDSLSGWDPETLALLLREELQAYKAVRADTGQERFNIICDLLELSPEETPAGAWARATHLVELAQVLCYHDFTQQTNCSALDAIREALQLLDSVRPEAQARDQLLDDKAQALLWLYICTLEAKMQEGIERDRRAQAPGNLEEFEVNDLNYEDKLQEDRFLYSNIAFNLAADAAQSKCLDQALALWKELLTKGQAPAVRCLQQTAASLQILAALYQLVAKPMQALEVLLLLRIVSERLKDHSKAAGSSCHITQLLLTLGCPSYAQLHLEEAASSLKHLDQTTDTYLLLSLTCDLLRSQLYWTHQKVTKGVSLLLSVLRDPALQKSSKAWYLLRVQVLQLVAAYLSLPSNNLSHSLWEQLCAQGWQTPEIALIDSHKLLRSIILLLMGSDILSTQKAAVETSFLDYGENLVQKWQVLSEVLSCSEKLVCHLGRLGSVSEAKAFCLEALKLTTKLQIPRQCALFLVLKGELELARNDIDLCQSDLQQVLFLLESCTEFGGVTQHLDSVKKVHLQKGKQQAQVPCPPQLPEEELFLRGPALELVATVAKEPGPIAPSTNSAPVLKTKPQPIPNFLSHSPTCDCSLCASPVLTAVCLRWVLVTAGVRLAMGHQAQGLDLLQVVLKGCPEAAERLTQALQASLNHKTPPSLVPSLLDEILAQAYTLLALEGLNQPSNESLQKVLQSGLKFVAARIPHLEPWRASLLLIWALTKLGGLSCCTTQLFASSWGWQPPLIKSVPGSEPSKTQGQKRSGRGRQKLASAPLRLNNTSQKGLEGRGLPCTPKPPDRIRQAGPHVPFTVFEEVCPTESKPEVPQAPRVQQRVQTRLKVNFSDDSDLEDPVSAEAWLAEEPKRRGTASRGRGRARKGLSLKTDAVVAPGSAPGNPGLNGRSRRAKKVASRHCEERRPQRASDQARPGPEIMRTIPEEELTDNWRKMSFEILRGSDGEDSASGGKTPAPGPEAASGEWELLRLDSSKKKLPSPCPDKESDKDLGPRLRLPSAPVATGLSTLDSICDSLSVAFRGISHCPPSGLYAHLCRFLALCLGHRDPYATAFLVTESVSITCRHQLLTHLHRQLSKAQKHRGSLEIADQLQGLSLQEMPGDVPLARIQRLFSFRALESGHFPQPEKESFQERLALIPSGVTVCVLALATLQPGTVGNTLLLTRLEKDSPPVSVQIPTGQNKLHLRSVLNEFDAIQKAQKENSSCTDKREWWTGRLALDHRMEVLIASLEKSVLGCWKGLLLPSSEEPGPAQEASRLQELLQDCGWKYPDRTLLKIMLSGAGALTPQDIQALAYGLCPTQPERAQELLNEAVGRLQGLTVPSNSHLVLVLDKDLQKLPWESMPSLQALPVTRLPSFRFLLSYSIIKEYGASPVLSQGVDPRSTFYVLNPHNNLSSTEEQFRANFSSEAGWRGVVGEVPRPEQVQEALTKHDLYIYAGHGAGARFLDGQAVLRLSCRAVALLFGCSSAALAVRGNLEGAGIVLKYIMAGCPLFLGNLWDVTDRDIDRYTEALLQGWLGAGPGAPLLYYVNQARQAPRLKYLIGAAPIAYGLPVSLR

[3] = biological target: active (apo, securin-free) human separase (human) (UniProt Q14674); remark: listed apart in the source
[4] = biological target: active (apo, securin-free) human separase (human) (UniProt Q14674); remark: listed apart in the source

Row | Molecule | Kd [1] [nM] | also measured
1 | 25 bp | 800 | 
2 | 50 bp | 300 | 
3 | 50 bp 2 | 220 | 
4 | securin^RE fragment (aa 93-150) (domain or fragment, also: 35S-methionine-labeled) MTEKTVKAKSSVPASDDAYPEIEKFREFNPLDFESFDLPEEHQIAHLPLSGVPLMILD |  | cleavage of the 35S-labeled securin^RE fragment (93-150) by separase in vitro (SDS-PAGE, Phosphorimaging) [2]: 50%
5 | Mca-DDREIMREGS-{Dnp′} [Mca-…-Dnp, Scc1 site 1 substrate peptide] |  | KM of cleavage of the FRET dye-quencher peptide by purified active separase (Michaelis-Menten analysis) [3]: 70 µM
6 | separase biosensor H2B-mRuby2-Scc1(142-467)-mNeonGreen, ^255Leu-Pro to Ala-Ala (domain or fragment) EITMREEVGNISILQENDFGDFGMDDREIMREGSAFEDDDMLVSTTTSNLLLESEQSTSNLNEKINHLEYEDQYKDDNFGEGNDGGILDDKLISNNDGGIFDDPPALSEAGVMAAEQPAHDDMDEDDNVSMGGPDSPDSVDPVEPMPTMTDQTTLVPNEEEAFALEPIDITVKETKAKRKRKLIVDSVKELDSKTIRAQLSDYSDIVTTLDLAPPTKKLMMWKETGGVEKLFSLPAQPLWNNRLLKLFTRCLTPLVPEDLRKRRKGGEADNLDEFLKEFENPEVPREDQQQQHQQRDVIDEPIIEEPSRLQESVMEASRTNIDESA |  | cleavage of the separase biosensor in U2OS cells in anaphase (loss of GFP relative to RFP on chromosomes); the enzyme is the endogenous separase of the cells [4]: 50%
